# B1: AZD3152 (antibody, V domains shown)
# VH: EVQLVESGGGLVQPGRSLRLSCAASGFPFDDYAIHWVRLAPGKGLEWVSSISWDSGSIGYADSVKGRFTISRDNAKNSLYLQMNSLRAEDTALYYCAKGAFPGYSSGWYYGLEVWGQGTTVTVSS
# VL: QSVVTQPPSASGSLGQSVTISCTGTSSDVGGYNYVSWYQQHPGKAPKLMIFEVSKRPSGVPDRFSGSKSGNTASLTVSGLQAEDEADYYCSSYAGNKGVFGGGTKLTVL
# Target: SARS-CoV-2 XBB.1.5 RBD (BLI) (SARS-CoV-2, Omicron XBB.1.5, strain)
# Experiment: BLI
# Conditions: both partners purified
binder,measurement,value
B1,Kd,2 nM
